In US20260167699A1 (Chugai, published 2026):

B1: GpH7-A5/GpH7-B3 variant T335_14T/GpL16-k0 (antibody, human IgG1, kappa)
heavy 1: not shown
heavy 2: not shown
light: DIVMTQSPLSLPVTPGEPASISCQASESLVHSNRNTYLHWYLQKPGQSPQLLIYKVSNRFSGVPDRFSGSGSGTDFTLKISRVEAEDVGVYYCSQNTHVPPTFGQGTKVEIERTVAAPSVFIFPPSDEQLKSGTASVVCLLNNFYPREAKVQWKVDNALQSGNSQESVTEQDSKDSTYSLSSTLTLSKADYEKHKVYACEVTHQGLSSPVTKSFNRGEC
B2: GpH7-A5/GpH7-B3 variant D270_02A/GpL16-k0 (antibody, human IgG1, kappa)
heavy 1: not shown
heavy 2: not shown
light: B1 light
notes: copies: 1 + 1 + 2
B3: GpH7-A5/GpH7-B3 variant A327_13S/GpL16-k0 (antibody, human IgG1, kappa)
heavy 1: not shown
heavy 2: not shown
light: B1 light
notes: copies: 1 + 1 + 2
B4: GpH7-A5/GpH7-B3 variant E333_04F/GpL16-k0 (antibody, human IgG1, kappa)
heavy 1: not shown
heavy 2: not shown
light: B1 light
notes: copies: 1 + 1 + 2
B5: GpH7-A5/GpH7-B3 variant E269_13S/GpL16-k0 (antibody, human IgG1, kappa)
heavy 1: not shown
heavy 2: not shown
light: B1 light
notes: copies: 1 + 1 + 2
B6: GpH7-A5/GpH7-B3 variant A330_07I/GpL16-k0 (antibody, human IgG1, kappa)
heavy 1: not shown
heavy 2: not shown
light: B1 light
notes: copies: 1 + 1 + 2
B7: GpH7-A5/GpH7-B3 variant A330_14T/GpL16-k0 (antibody, human IgG1, kappa)
heavy 1: not shown
heavy 2: not shown
light: B1 light
notes: copies: 1 + 1 + 2
B8: GpH7-A5/GpH7-B3 variant D270_13S/GpL16-k0 (antibody, human IgG1, kappa)
heavy 1: not shown
heavy 2: not shown
light: B1 light
notes: copies: 1 + 1 + 2
B9: GpH7-A5/GpH7-B3 variant A327_05P/GpL16-k0 (antibody, human IgG1, kappa)
heavy 1: not shown
heavy 2: not shown
light: B1 light
notes: copies: 1 + 1 + 2
B10: GpH7-A5/GpH7-B3 variant E333_07I/GpL16-k0 (antibody, human IgG1, kappa)
heavy 1: not shown
heavy 2: not shown
light: B1 light
notes: copies: 1 + 1 + 2
B11: GpH7-A5/GpH7-B3 variant A330_20W/GpL16-k0 (antibody, human IgG1, kappa)
heavy 1: not shown
heavy 2: not shown
light: B1 light
notes: copies: 1 + 1 + 2
B12: GpH7-A5/GpH7-B3 variant A327_18N/GpL16-k0 (antibody, human IgG1, kappa)
heavy 1: not shown
heavy 2: not shown
light: B1 light
notes: copies: 1 + 1 + 2
B13: GpH7-A5/GpH7-B3 variant E269_03V/GpL16-k0 (antibody, human IgG1, kappa)
heavy 1: not shown
heavy 2: not shown
light: B1 light
notes: copies: 1 + 1 + 2
B14: GpH7-A5/GpH7-B3 variant D270_03V/GpL16-k0 (antibody, human IgG1, kappa)
heavy 1: not shown
heavy 2: not shown
light: B1 light
notes: copies: 1 + 1 + 2
B15: GpH7-A5/GpH7-B3 variant E333_01G/GpL16-k0 (antibody, human IgG1, kappa)
heavy 1: not shown
heavy 2: not shown
light: B1 light
notes: copies: 1 + 1 + 2
B16: GpH7-A5/GpH7-B3 variant A330_09D/GpL16-k0 (antibody, human IgG1, kappa)
heavy 1: not shown
heavy 2: not shown
light: B1 light
notes: copies: 1 + 1 + 2
B17: GpH7-A5/GpH7-B3 variant D270_14T/GpL16-k0 (antibody, human IgG1, kappa)
heavy 1: not shown
heavy 2: not shown
light: B1 light
notes: copies: 1 + 1 + 2
B18: GpH7-A5/GpH7-B3 variant A327_06M/GpL16-k0 (antibody, human IgG1, kappa)
heavy 1: not shown
heavy 2: not shown
light: B1 light
notes: copies: 1 + 1 + 2
B19: GpH7-A5/GpH7-B3 variant D270_10E/GpL16-k0 (antibody, human IgG1, kappa)
heavy 1: not shown
heavy 2: not shown
light: B1 light
notes: copies: 1 + 1 + 2
B20: GpH7-A5/GpH7-B3 variant A330_08L/GpL16-k0 (antibody, human IgG1, kappa)
heavy 1: not shown
heavy 2: not shown
light: B1 light
notes: copies: 1 + 1 + 2
B21: GpH7-A5/GpH7-B3 variant E269_07I/GpL16-k0 (antibody, human IgG1, kappa)
heavy 1: not shown
heavy 2: not shown
light: B1 light
notes: copies: 1 + 1 + 2
B22: GpH7-A5/GpH7-B3 variant D270_19Q/GpL16-k0 (antibody, human IgG1, kappa)
heavy 1: not shown
heavy 2: not shown
light: B1 light
notes: copies: 1 + 1 + 2
B23: GpH7-A5/GpH7-B3 variant D270_06M/GpL16-k0 (antibody, human IgG1, kappa)
heavy 1: not shown
heavy 2: not shown
light: B1 light
notes: copies: 1 + 1 + 2
B24: GpH7-A5/GpH7-B3 variant A330_15Y/GpL16-k0 (antibody, human IgG1, kappa)
heavy 1: not shown
heavy 2: not shown
light: B1 light
notes: copies: 1 + 1 + 2
B25: GpH7-A5/GpH7-B3 variant E269_16H/GpL16-k0 (antibody, human IgG1, kappa)
heavy 1: not shown
heavy 2: not shown
light: B1 light
notes: copies: 1 + 1 + 2
B26: GpH7-A5/GpH7-B3 variant E269_14T/GpL16-k0 (antibody, human IgG1, kappa)
heavy 1: not shown
heavy 2: not shown
light: B1 light
notes: copies: 1 + 1 + 2
B27: GpH7-A5/GpH7-B3 variant E269_15Y/GpL16-k0 (antibody, human IgG1, kappa)
heavy 1: not shown
heavy 2: not shown
light: B1 light
notes: copies: 1 + 1 + 2
B28: GpH7-A5/GpH7-B3 variant E333_06M/GpL16-k0 (antibody, human IgG1, kappa)
heavy 1: not shown
heavy 2: not shown
light: B1 light
notes: copies: 1 + 1 + 2

Molecular target: T1, FcγRIIIa (human, UniProt P08637 17-208)
T1 construct: extracellular domain; also called 3a; FcγRIIIa extracellular domain
Test: SPR (Biacore);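 note: antibody variants captured on an SPR sensor chip, with FcγRIIIa passed over as analyte in HBS-EP+ buffer at 25 °C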

T1 sequence (P08637 other isoform, or with tags, fused parts or gaps): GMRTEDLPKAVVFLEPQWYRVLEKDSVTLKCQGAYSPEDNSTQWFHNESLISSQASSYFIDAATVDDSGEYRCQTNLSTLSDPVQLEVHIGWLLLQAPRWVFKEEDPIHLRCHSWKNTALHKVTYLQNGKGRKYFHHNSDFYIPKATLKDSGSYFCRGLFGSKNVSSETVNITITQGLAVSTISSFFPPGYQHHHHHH

Binder	He/Con 3a
B1	104 % of GpH7-A5/GpH7-B3/GpL16-k0
B2	50.5 % of GpH7-A5/GpH7-B3/GpL16-k0
B3	66.7 % of GpH7-A5/GpH7-B3/GpL16-k0
B4	104 % of GpH7-A5/GpH7-B3/GpL16-k0
B5	62.1 % of GpH7-A5/GpH7-B3/GpL16-k0
B6	101 % of GpH7-A5/GpH7-B3/GpL16-k0
B7	85.8 % of GpH7-A5/GpH7-B3/GpL16-k0
B8	51.4 % of GpH7-A5/GpH7-B3/GpL16-k0
B9	61.9 % of GpH7-A5/GpH7-B3/GpL16-k0
B10	100 % of GpH7-A5/GpH7-B3/GpL16-k0
B11	102 % of GpH7-A5/GpH7-B3/GpL16-k0
B12	62.8 % of GpH7-A5/GpH7-B3/GpL16-k0
B13	56 % of GpH7-A5/GpH7-B3/GpL16-k0
B14	54.6 % of GpH7-A5/GpH7-B3/GpL16-k0
B15	101 % of GpH7-A5/GpH7-B3/GpL16-k0
B16	56.4 % of GpH7-A5/GpH7-B3/GpL16-k0
B17	55.4 % of GpH7-A5/GpH7-B3/GpL16-k0
B18	54 % of GpH7-A5/GpH7-B3/GpL16-k0
B19	112 % of GpH7-A5/GpH7-B3/GpL16-k0
B20	122 % of GpH7-A5/GpH7-B3/GpL16-k0
B21	55.3 % of GpH7-A5/GpH7-B3/GpL16-k0
B22	74.2 % of GpH7-A5/GpH7-B3/GpL16-k0
B23	60 % of GpH7-A5/GpH7-B3/GpL16-k0
B24	122 % of GpH7-A5/GpH7-B3/GpL16-k0
B25	50.7 % of GpH7-A5/GpH7-B3/GpL16-k0
B26	59.7 % of GpH7-A5/GpH7-B3/GpL16-k0
B27	51.5 % of GpH7-A5/GpH7-B3/GpL16-k0
B28	100 % of GpH7-A5/GpH7-B3/GpL16-k0
